Test results reported in the supplement of paper PMC9170038.

System: MS2 coat protein
Assay: apparent KD of MS2 coat protein; higher = weaker reporter binding
Details: Eterna round: R107
In short: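 Apparent KD was obtained for each design as the median of normalised binding-curve fits over its clusters. RNA switches transcribed on-chip from Illumina sequencing clusters were titrated with SNAP-549-labelled MS2 coat protein (twofold steps, 0.7 or 1.5 nM to 3 µM) in 100 mM Tris-HCl pH 7.5, 80 mM KCl, 4 mM MgCl2, without or with constant ligand.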

[1] = input ligand: theophylline 20 uM
[2] = input ligand: theophylline 2 mM
[3] = input ligand: tryptophan 2.4 mM

Sequence | apparent KD of MS2 coat protein (input ligand: arginine 13.2 mM) | apparent KD of MS2 coat protein (input ligand: none) | apparent KD of MS2 coat protein [1] | apparent KD of MS2 coat protein [2] | apparent KD of MS2 coat protein [3]
AGCGCAGGUCCUGAUACCAGAGACAUGAGGAUCACCCAUGUCCGGUGGUCCUGCCACAGGCUCCCUUGGCAGCAGGGCUUGUGCU [Exclusion Theophylline B GF9] | 31.4 nM | 28.7 nM | 40.8 nM | 60.5 nM | 29.1 nM
AGCGUGCAUCGGAAAACGAUGUACGCAAAUCGAGGACCGGUACGGCCGCCACUCGUCCUCAACAUGAGGAUCACCCAUGUAAUAA [Mat - Exclusion - Trytophan A - D10] | 22 nM | – | 24.8 nM | 24 nM | –
AGCUCGCAAUCCUCAGCGUCAAAGACGCGUCGAGGACCGGUACGGCCGCCACUCGACAAGAGGAUCACCCUUGUCUAAGCGAGCA [TrypAX 5 #SwitchBubble #AlternativeMS2 #MS2Late #CuTurnoff] | 78.5 nM | – | 355 nM | 588 nM | 114 nM
AGCUCGCAUCCUCAAGCGUCAAAGACGCGUCGAGGACCGGUACGGCCGCCACUCGACCUGAGGAACACCCAGGUCCUCGCGAGCA [TrypAX 7 #SwitchBubble #AlternativeMS2 #MS2Late #CuTurnoff] | 20.7 nM | 26.1 nM | 40.2 nM | 34.9 nM | 236 nM
AGCUCGCGAAAGCGAGCAACAUGAUCCGAAGGAGCGGGCGAAAGCCCAGGUAGGUCGCGGACAUGAGGAUCACCCAUGUCUCCUU [MAT - Exclusion Arginine A - Mod of Eli - D13] | 41 nM | 70.9 nM | 88.4 nM | 94.8 nM | 77 nM
AGGAACAUGAGGAUCACCCAUGUAAGCGAUACCAGUGAUAUGUUGCGCCCUUGGCAGCGCAAGUGUGUGUGAAAGAUGUAAGAUU [Eclusion - Theophylline A / A] | 14.6 nM | – | 29.3 nM | – | 16.7 nM
AGGACGGUCGGAAGGAGCGGUACAUGAGGAUCACCCAUGUACUCCUGGGCAUCCGUAGUGUGCCAGGUAGGUCGCCGAUUGCGGG [XArg-B8] | 12.1 nM | 12.1 nM | 19.8 nM | 21.5 nM | 16.2 nM
AGGACGGUCGGAAGGAGCGGUACAUGAGGAUCACCCAUGUAUUCCUGGGCAUCCGUAGUGUGCCAGGUAGGUCGCCGAUUGCGGG [XArg-B7] | 57.6 nM | 32.7 nM | 109 nM | 103 nM | 64.8 nM
AGGUACAGCAGGUGAUUCUGGCUGUACCAACGAGGACCGGUACGGCCGCCACUCGAAUAAACAUGAGGAUCACCCAUGUACAAAU [T''-M-T'-T-MS2 - Design 7] | 20.3 nM | – | 41.3 nM | 31.9 nM | –
AGUAAUAAUAUAAAUAAUAUUAGGUCAUGGCGAGGACCGGUACGGCCGCCACUCGGUUACAUGAGGAUCACCCAUGUCCCGCUUA [Exclusion - Tryptophan A] | 26.6 nM | – | 35 nM | 31.2 nM | –
AGUACACGAACGGAUACCAGCCGGACAUGAGGAUCACCCAUGUCCUACCUCUGUUCGGUUGGCCCUUGGCAGCCGUUCGUGUACA [Omei Theo B SS A v8] | 122 nM | – | 590 nM | – | 208 nM
AGUACAUGAGGAUCACCCAUGUAUCGGUACCGAGGACCGGUACGGCCGCCACUCGCAGGACAUGAGGAUCACCCAUGUGCCGCCG [SSTA DOUBLE!!! :-D #9] | 13.9 nM | – | 22.6 nM | 22.4 nM | –
AGUACUCGAACGGAUACCAGCCGGACAUGAGGAUCACCCAUGUCCUACCUAUGUUCGGUUGGCCCUUGGCAGCCGUUCGUGUACA [Omei Theo B SS A v6] | 171 nM | – | 707 nM | – | 430 nM
AGUAGUUGACAAAAGUCAGCUACAAUUGAAGGAGCGGGUGGGUGCCCAGGUAGGUCGCAAUAACAUGAGGAUCACCCAUGUAUAA [ArgAS 2 #BothOrNeither #OpenEnded] | 20 nM | 21 nM | 22.9 nM | 27.2 nM | 17.9 nM
AGUAUCAGUGGAAGGAGCGUCGCGACUGCCACAUGAGGAUCACCCAUGUCGCCUUGAGCGCGACAGGUAGGUCGCCACGGUAGGC [SS-ArgB2] | 29.1 nM | 301 nM | 213 nM | 499 nM | 289 nM
AGUAUUGGAAACAGUACUAGUGAUCCGGUCCGAGGACCGGUACGGCCGCCACUCGAAUUAAAUAAACAUGAGGAUCACCCAUGUA [Ex Tryptophan A 15] | 18.1 nM | – | 18.7 nM | 20.6 nM | –
